Here are results for one molecule from article PMC6366860 (Journal of molecular and cellular cardiology, 2018).

This experiment addresses F-actin from rabbit skeletal muscle (rabbit, UniProt P68135 1-377). Briefly: co-sedimentation.

B1: mouse short form C0-C2, C-terminal tagged (mSF1), lacking the 8 amino acid NTE (domain or fragment)
chain: PEPGKKPVSAFNKKPRSAEVTAGSAAVFEAETERSGVMVRWQRDGSDITANDKYGLAAEGKRHTLTVRDASPDDQGSYAVIAGSSKVKFDLKVTEPAPPEKAESEVAPGAPEEVPAPATELEESVSSPEGSVSVTQDGSAAEHQGAPDDPIGLFLMRPQDGEVTVGGSIVFSARVAGASLLKPPVVKWFKGKWVDLSSKVGQHLQLHDSYDRASKVYLFELHITDAQTTSAGGYRCEVSTKDKFDSCNFNLTVHEAIGSGDLDLRSAFRRTSLAGAGRRTSDSHEDAGTPDFSSLLKKRDSFRRDSKLEAPAEEDVWEILRQAPPSEYERIAFQHGVEACHRPLKRLKGMKQDEKKSTAFQKKLEPAYQVNKGHKIRLTVELADPDAEVKWLKNGQEIQMSGSKYIFESVGAKRTLTISQCSLADDAAYQCVVGGEKCSTELFVKEP
B1 returned a Kd of 10.7 µM.
